The record followed here is US20090155239A1, “Novel Protease, Microorganism Producing the Same, and Application Thereof” (SODX CO., LTD., priority 2005, published 2009).

Where two headings read alike, the source gives them in different places. Where a SMILES comes first, the peptide text is derived from it. [ ]: non-standard residue; d: D form. The star is where a group is joined. Sta = CC(C)C[C@H](N)[C@@H](O)CC(=O)O; Isovaleryl = CC(C)CC(=O)*

Data set [1] concerns protease of the present invention. It counts as biochemical, Fusarium sp. strain BLB. To be noted: for Relative Activity (%): pH 5.
The conditions of data set [2]: substrate H-D-Val-Leu-Lys-pNA; H-D-Ile-Pro-Arg-pNA taken as 100.
The test system of a further data set is mice. Briefly: Acute toxicity test on mice.
Another data set concerns fibrin. Briefly: Fibrin plate method. The data set is classed as biochemical, bovine.
The next data set has as its system Hammarsten casein. The data set can be described thus: Casein method. It counts as biochemical. To be noted: final purified product of Example 2. The procedure: A 0.5 ml quantity of sample (protease solution) is added to 1.5 ml of Hammarsten casein solution, prepared using 100 mM boric acid buffer (pH 10) so as to have a final concentration of 1 wt. %, and a reaction is carried out at 37° C. for 10 minutes. The reaction is terminated by adding 2 ml of 0.44 M trichloroacetic acid solution. After allowing the reaction mixture to stand for 20 minutes, the precipitate is filtered off. Five milliliters of 0.44 M aqueous sodium carbonate solution and 1 ml of phenol reagent (containing, per 100 ml, 9.1 g of sodium tungstate dihydrate, 2.3 g of sodium molybdate dihydrate, 4.5 ml of phosphoric acid, 9.1 ml of hydrochloric acid, and 13.6 g of lithium sulfate) are added in that order. After allowing the resulting mixture to stand for 20 minutes, the absorbance at an absorption wavelength of 660 nm is measured. In the above measurement, the amount of enzyme that liberates, per minute, an acid-soluble protein hydrolysate corresponding to 1 μg of tyrosine is defined as 1 unit.

For data set [3] the following is noted: substrate Gle-Phe-pNA; H-D-Ile-Pro-Arg-pNA taken as 100.
The nature of data set [4]: Synthetic substrate method, substrate specificity. To be noted: substrate Bz-L-Arg-pNA. The data set is classed as biochemical.
For data set [5] the following is noted: substrate Suc-Ala-Ala-Pro-Phe-pNA; H-D-Ile-Pro-Arg-pNA taken as 100.
The conditions of data set [6]: substrate H-D-Ile-Pro-Arg-pNA, taken as 100.
For data set [7] the following is noted: substrate Suc-Ala-Ala-Pro-Leu-pNA; H-D-Ile-Pro-Arg-pNA taken as 100.

For `O=C(O)CN(CCN(CC(=O)O)CC(=O)O)CC(=O)O` [EDTA, ethylenediaminetetraacetic acid], the “Relative Activity (%)” value in data set [1] stood at 100%.

As to `c1cnc2c(c1)ccc1cccnc12` [Phenanthroline], in data set [1], the “Relative Activity (%)” value is on record as 100%.

In the case of `CC(C)C[C@H](NC(=O)[C@H]1O[C@@H]1C(=O)O)C(=O)NCCCCN=C(N)N` [E-64, t-epoxysuccinyl-L-leucylamide(4-guanidino)butane], the “Relative Activity (%)” value in data set [1] is given as 97%.

For Chimostatin, in [1], the “Relative Activity (%)” value was 100%.

Take `O=S(=O)(F)Cc1ccccc1` [PMSF, phenylmethylsulfonyl fluoride]: in data set [1], the “inhibition of the protease (in words)” value was “inhibited” and the “Relative Activity (%)” value came to 59%.

Consider `CC(C)CC(=O)N[C@H](C(=O)N[C@H](C(=O)N[C@@H](CC(C)C)[C@@H](O)CC(=O)N[C@@H](C)C(=O)N[C@@H](CC(C)C)[C@@H](O)CC(=O)O)C(C)C)C(C)C` [Pepstatin] (Isovaleryl-VV[Sta]A[Sta]-OH), for which the “Relative Activity (%)” value in data set [1] amounted to 100%.

On to `c1ccc(-c2ccccn2)nc1` [2,2′-Bipyridyl], for which, in [1], the “Relative Activity (%)” value amounted to 97%.

Take `NCCCCCC(=O)O` [ε-ACA, ε-aminocaproic acid]: the “Relative Activity (%)” value in data set [1] came to 100%.

In the case of Streptomyces pepsin inhibitor [SPI], the “Relative Activity (%)” value in data set [1] amounted to 100%.

B1: protease of the present invention: novel trypsin-type serine protease from Fusarium sp. strain BLB, about 27000 on SDS-PAGE, amino acid sequence SEQ ID NO: 1 (protein, listed as Fusarium sp.)
chain: MVKFATIVALVAPLVAARPQDRPLIVGGTAASAGDFPFIVSISYQGGPWCGGTLLNANTVLTAAHCTSGRAASAFQVRAGSLNRNSGGVTSSVSSIRIHPSFSSSTLNNDVSILKLSTPIASSSTISYGRLAASGSDPAAGSSATVAGWGATAQGSPSSPVALRKVTIPIVSRATCRAQYGTSAITTNMFCAGLEEGGKDSCQGDSGGPIVDTSNTVIGIVSWGEGCAQPNFSGVYARVGTLRSYIDGQL
For the molecule B1, the “Relative Activity (%)” value in [2] is listed as 21%; in data set [3], 0%; in data set [4] (H-D-Ile-Pro-Arg-pNA taken as 100), 2.8%; in data set [5], 0%; in [6], 100%; in [7] it was 0%. In addition, the “safety in acute toxicity test” value with mice is “demonstrated the safety”. The “fibrinolytic activity (in words)” value in the data set on fibrin was “strong fibrinolytic activity”. For the same molecule, the “protease activity by the casein method” value in the data set on Hammarsten casein came out at 634 U/mg. For the same molecule, the “degrading activity on synthetic substrate (in words)” value in data set [4] is recorded as “has degrading activity”.

B2: soybean trypsin inhibitor (protein)
chain: DFVLDNEGNPLENGGTYYILSDITAFGGIRAAPTGNERCPLTVVQSRNELDKGIGTIISSPYRIRFIAEGHPLSLKFDSFAVIMLCVGIPTEWSVVEDLPEGPAVKIGENKDAMDGWFRLERVSDDEFNNYKLVFCPQQAEDDKCGDIGISIDHDDGTRRLVVSKNKPLVVQFQKLDKESL
As for B2, in data set [1], the “inhibition of the protease (in words)” value is on record as “not inhibited” and the “Relative Activity (%)” value was 100%.

B3: Streptomyces subtilisin inhibitor (protein)
chain: DAPSALYAPSALVLTVGKGVSATTAAPERAVTLTCAPGPSGTHPAAGSACADLAAVGGDLNALTRGEDVMCPMVYDPVLLTVDGVWQGKRVSYERVFSNECEMNAHGSSVFAF
In the case of B3, in data set [1], the “Relative Activity (%)” value is on record as 100%.
